Assay [1] has as its target T1, human BMP-5 (human, UniProt P22003 317-454, limits assumed).
T1 construct: Bought from R&D Systems
T1 sequence (looked up): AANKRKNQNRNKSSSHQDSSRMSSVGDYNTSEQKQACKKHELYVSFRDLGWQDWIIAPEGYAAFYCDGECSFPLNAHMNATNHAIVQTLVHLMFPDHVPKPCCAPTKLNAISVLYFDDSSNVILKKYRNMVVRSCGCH
Briefly: co-immunoprecipitation with anti-myc 9E10 beads, western blot. On the procedure:
(§1) Human DCR5-myc3 (1 ml of COS7 cell-derived serum-free conditioned media described supra) was co-incubated with human BMP-2 (1 μg/ml), or human BMP-4 (0.5 μg/1 ml) (R&D Systems), or human BMP-5 ([…]) (R&D Systems), or mouse Nodal (also known as mBMP-16; provided as ³⁵S-mouse Nodal expressed in X. laevis oocytes), or human BMP-11 (also known as human GDF-11; provided as ³⁵S-human BMP-11 expressed in X. laevis oocytes), in the absence or in the presence of human noggin protein hNGAB2 (described in published PCT application publication no. WO 99/03996, published Jan. 28, 1999, and incorporated in its entirety herein by reference), 2 to 5 μg/ml. The formation of a stable complex between human DCR5-myc3 and the different BMP family members was determined by immunoprecipitating human DCR5-myc3 and associated proteins using the anti-myc monoclonal antibody (9E10; 1 μg/ml) bound to Protein A Ultralink (Pierce). The binding reaction was carried out in the serum-free conditioned media containing 20 mM Tris pH 7.6, 150 mM NaCl, 0.1% Tween 20 (TBST), and 1 mg/ml bovine serum albumin (BSA). Binding was allowed to proceed for 1 hour at 25° C. in a reaction volume of 1.1 ml, with continuous mixing to keep the Protein A-Ultralink (Pierce) in suspension. […]
In general terms: A western blot detects proteins with antibodies after separation by electrophoresis.

The target of assay [2] is T2, mouse Nodal (mouse, UniProt P43021 245-354, limits assumed, 35S-labelled).
T2 construct: Provided as 35S-labelled protein expressed in X. laevis oocytes; also called mBMP-16; 35S-mouse Nodal
T2 sequence (looked up): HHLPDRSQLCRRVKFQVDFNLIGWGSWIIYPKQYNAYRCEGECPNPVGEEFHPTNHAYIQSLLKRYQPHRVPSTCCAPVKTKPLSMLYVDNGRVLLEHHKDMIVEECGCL
Briefly: co-immunoprecipitation with anti-myc 9E10 beads, 35S-labelled Nodal. On the procedure: as §1

For assay [3], the target named is T3, human BMP-11 (human, UniProt O95390 299-407, limits assumed, 35S-labelled).
T3 construct: Provided as 35S-labelled protein expressed in X. laevis oocytes; also called human GDF-11; GDF-11
T3 sequence (looked up): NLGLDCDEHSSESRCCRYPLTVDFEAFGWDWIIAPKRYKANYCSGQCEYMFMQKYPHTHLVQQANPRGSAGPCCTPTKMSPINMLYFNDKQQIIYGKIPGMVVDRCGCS
Briefly: co-immunoprecipitation with anti-myc 9E10 beads, 35S-labelled BMP-11. On the procedure:
as §1

The values that follow come from US20040106134A1 (Regeneron, published 2004).

B1: human DCR5-myc3 (other)
chain: RKNRPAGAIPSPYKDGSSNNSERWQHQIKEVLASSQEALVVTERKYLKSDWCKTQPLRQTVSEEGCRSRTILNRFCYGQCNSFYIPRHVKKEEESFQSCAFCKPQRVTSVLVELECPGLDPPFRLKKIQKVKQCRCMSVNLSDSDKQTGEQKLISEEDLGGEQKLISEEDLGGEQKLISEEDLGP
notes: Used as serum-free conditioned medium of transiently transfected COS7 cells; also called Human DCR5-myc3 protein; hDCR-5
Take B1: the binding result is “no binding (tested: 1 g/ml (so in the source))” in assay [1], “no binding” in assay [2] and “no binding” in assay [3].
